37 molecules from patent US20230192860A1 (published 2023) can be followed below.

Residue numbers refer to the chain shown, from its start.

B1: P1-061029.IgG1.3 (antibody, V domains shown)
VH: EVQLVESGGGLVQPGKSLRLSCAASGFTLDDYAMHWVRQAPGKGLEWVSGINWNSANIGYADSVKGRFTISRDNAKNSLYLQMNSLRTEDTALYYCAKVPGYSGGWIDAFDVWGQGTMVTVSS
VL: not shown
B2: P1-068767_E30D_E100fF (antibody, V domains shown)
VH: B1 VH with N52D, A56E, V112D
VL: not shown
B3: P1-068767_E100fF_D102V (antibody, V domains shown)
VH: B1 VH with D30E, N52D, A56E
VL: not shown
B4: P1-068767_D102V (antibody, V domains shown)
VH: B1 VH with D30E, N52D, A56E, F110E
VL: not shown
B5: P1-068767_E100fF (antibody, V domains shown)
VH: B1 VH with D30E, N52D, A56E, V112D
VL: not shown
B6: P1-070916 (P1-068767_D52N_E55A) (antibody, V domains shown)
VH: B1 VH with D30E, F110E, V112D
VL: not shown
B7: P1-068767_E55A_D102V (antibody, V domains shown)
VH: B1 VH with D30E, N52D, F110E
VL: not shown
B8: P1-070914 (P1-068767_E30D_D52N) (antibody, V domains shown)
VH: B1 VH with A56E, F110E, V112D
VL: not shown
B9: P1-070906 (P1-068767_D52N) (antibody, V domains shown)
VH: B1 VH with D30E, A56E, F110E, V112D
VL: not shown
B10: P1-068767_D52N_E100fF (antibody, V domains shown)
VH: B1 VH with D30E, A56E, V112D
VL: not shown
B11: P1-068767_E30D_D102V (antibody, V domains shown)
VH: B1 VH with N52D, A56E, F110E
VL: not shown
B12: P1-070908 (P1-068767_E55A) (antibody, V domains shown)
VH: B1 VH with D30E, N52D, F110E, V112D
VL: not shown
B13: P1-068767_D52N_D102V (antibody, V domains shown)
VH: B1 VH with D30E, A56E, F110E
VL: not shown
B14: P1-068761_H100G_E100fF (antibody, V domains shown)
VH: B1 VH with D30E, Y32E, A56E, N57E
VL: not shown
B15: P1-068761_E30D_H100G (antibody, V domains shown)
VH: B1 VH with Y32E, A56E, N57E, F110E
VL: not shown
B16: P1-070900 (P1-068761_E56N_H100G) (antibody, V domains shown)
VH: B1 VH with D30E, Y32E, A56E, F110E
VL: not shown
B17: P1-068761_E100fF (antibody, V domains shown)
VH: B1 VH with D30E, Y32E, A56E, N57E, G104H
VL: not shown
B18: P1-070878 (P1-068761_E55A_E56N) (antibody, V domains shown)
VH: B1 VH with D30E, Y32E, G104H, F110E
VL: not shown
B19: P1-068761_E30D_E56N (antibody, V domains shown)
VH: B1 VH with Y32E, A56E, G104H, F110E
VL: not shown
B20: P1-068761_E30D_E100fF (antibody, V domains shown)
VH: B1 VH with Y32E, A56E, N57E, G104H
VL: not shown
B21: P1-070864 (P1-068761_E30D) (antibody, V domains shown)
VH: B1 VH with Y32E, A56E, N57E, G104H, F110E
VL: not shown
B22: P1-068761_E32Y_H100G (antibody, V domains shown)
VH: B1 VH with D30E, A56E, N57E, F110E
VL: not shown
B23: P1-068761_E32Y (antibody, V domains shown)
VH: B1 VH with D30E, A56E, N57E, G104H, F110E
VL: not shown
B24: P1-070872 (P1-068761_H100G) (antibody, V domains shown)
VH: B1 VH with D30E, Y32E, A56E, N57E, F110E
VL: not shown
B25: P1-068761_E56N_E100fF (antibody, V domains shown)
VH: B1 VH with D30E, Y32E, A56E, G104H
VL: not shown
B26: P1-068761_E32Y_E55A (antibody, V domains shown)
VH: B1 VH with D30E, N57E, G104H, F110E
VL: not shown
B27: P1-068761_E32Y_E100fF (antibody, V domains shown)
VH: B1 VH with D30E, A56E, N57E, G104H
VL: not shown
B28: P1-068761_E32Y_E56N (antibody, V domains shown)
VH: B1 VH with D30E, A56E, G104H, F110E
VL: not shown
B29: P1-070890 (P1-068761_E30D_E55A) (antibody, V domains shown)
VH: B1 VH with Y32E, N57E, G104H, F110E
VL: not shown
B30: P1-068761_E55A_E100fF (antibody, V domains shown)
VH: B1 VH with D30E, Y32E, N57E, G104H
VL: not shown
B31: P1-068761.IgG1.3 (antibody, V domains shown)
VH: B1 VH with D30E, Y32E, A56E, N57E, G104H, F110E
VL: not shown
B32: P1-070870 (P1-068761_E56N) (antibody, V domains shown)
VH: B1 VH with D30E, Y32E, A56E, G104H, F110E
VL: not shown
B33: P1-070868 (P1-068761_E55A) (antibody, V domains shown)
VH: B1 VH with D30E, Y32E, N57E, G104H, F110E
VL: not shown
B34: P1-068761_E30D_E32Y (antibody, V domains shown)
VH: B1 VH with A56E, N57E, G104H, F110E
VL: not shown
B35: P1-070922 (P1-068767_E30D_E55A) (antibody, V domains shown)
VH: B1 VH with N52D, F110E, V112D
VL: not shown
B36: P1-068767_E55A_E100fF (antibody, V domains shown)
VH: B1 VH with D30E, N52D, V112D
VL: not shown
B37: P1-070904 (P1-068767_E30D) (antibody, V domains shown)
VH: B1 VH with N52D, A56E, F110E, V112D
VL: not shown

In the first assay the target is T1, monovalent hVISTA-ECD (amino acids 32-193 of SEQ ID NO: 1 with a 7xHis tail) (UniProt Q9H7M9 33-193). As to the kind of experiment: SPR; pH 6.7. On the technique in general: Surface plasmon resonance follows binding to a sensor surface in real time, without labels.
T1 sequence (Q9H7M9 other isoform, or with tags, fused parts or gaps): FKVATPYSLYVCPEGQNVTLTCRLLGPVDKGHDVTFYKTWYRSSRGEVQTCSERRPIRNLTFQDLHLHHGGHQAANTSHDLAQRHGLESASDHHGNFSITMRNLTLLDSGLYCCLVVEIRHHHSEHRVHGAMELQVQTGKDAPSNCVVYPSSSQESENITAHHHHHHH
For orientation: Kd means a measure of binding affinity in units of concentration. A higher Kd goes with weaker binding. B1 came in with a Kd of 11 nM.
Still for that read-out and setting: the result for B2 reads 10000 nM; that for B3, 11 nM.
As for B4, the dissociation constant Kd was 14 nM.
The same measure, in the same setting: the result for B5 reads 5200 nM.
The same measure, in the same setting: under B6 stands 120 nM; under B7, 15 nM.
Still for that read-out and setting: under B8 stands 120 nM; under B9, 210 nM; under B10, around 39 nM.
In turn, B11 yielded a Kd of 17 nM.
Still for that read-out and setting: the result for B12 reads 380 nM; that for B13, 7.5 nM.

In a further assay the target is T1, monovalent hVISTA-ECD (amino acids …). Nature of the assay: SPR; pH 6.0.
Take B14: binding was put at a Kd of 0.23 nM.
As to B15, the Kd was determined as 15 nM.
The molecule B16 displayed a Kd of 10 nM. Compared with the last molecule, the Kd is about 1.5-fold lower.
The molecule B17 displayed a dissociation constant (Kd) of 0.19 nM.
For the molecule B18, binding was put at a Kd of 21 nM.
The same measure, in the same setting: the result for B19 reads 50 nM.
The same measure, in the same setting: the result for B20 reads 0.43 nM.
On the same count and under the same terms, the result for B21 reads 8.3 nM.
Consider B22, for which the dissociation constant Kd was 0.48 nM.
Same read-out and setting: the result for B23 reads 0.21 nM.
B24 came in with a Kd of 4.4 nM.
The same measure, in the same setting: under B25 stands 1.4 nM; under B26, 0.31 nM; under B27, 0.25 nM.
Same read-out and setting: under B28 stands 1.2 nM; under B29, 12 nM.
The same measure, in the same setting: under B30 stands 0.26 nM; under B31, 2.6 nM; under B32, 19 nM.
On to B33, for which the Kd worked out at 3.4 nM.
Still for that read-out and setting: the result for B34 reads 0.24 nM.

For a further assay the target is unchanged. Nature of the assay: SPR; pH 6.7. This is another data set of the same source.
Turning to B14, the Kd was 2.3 nM.
For B15, the Kd was around 81 nM.
With B1, the Kd is 11 nM.
Still for that read-out and setting: under B17 stands 1.3 nM; under B18, 210 nM.
Same read-out and setting: under B19 stands around 32 nM; under B20, 3.7 nM.
Same read-out and setting: under B21 stands 370 nM; under B22, 5 nM; under B23, 1.6 nM.
As for B24, the Kd was 230 nM.
Same read-out and setting: under B25 stands 6.5 nM; under B26, 2 nM; under B27, 1.1 nM.
For B28, the Kd came out at 5.1 nM.
Still for that read-out and setting: the result for B29 reads around 110 nM; that for B30, 1.5 nM.
Still for that read-out and setting: under B31 stands 71 nM.
B32 yielded a Kd of around 8200 nM.
Still for that read-out and setting: the result for B33 reads 120 nM; that for B34, 2 nM.

For a further assay the target is unchanged. Nature of the assay: SPR; pH 6.0. This is another data set of the same source.
For the molecule B2, the dissociation constant Kd is around 82 nM.
Still for that read-out and setting: under B3 stands 2.7 nM; under B35, 8.3 nM; under B4, 1.3 nM.
With B5, the equilibrium dissociation constant (Kd) is around 42 nM.
Still for that read-out and setting: the result for B36 reads 62 nM; that for B6, 4 nM.
Molecule B7 had a Kd of 1.9 nM.
B8 displayed a dissociation constant Kd of 5.8 nM.
Still for that read-out and setting: the result for B9 reads 3.2 nM; that for B37, 9.6 nM; that for B10, 20 nM.
On the same count and under the same terms, the result for B11 reads 2.1 nM; that for B12, 5.7 nM; that for B13, 0.88 nM.

A further assay shares this target. Nature of the assay: SPR; pH 7.4.
B14 yielded a Kd of 41 nM.
On the same count and under the same terms, under B1 stands 32 nM; under B17, 20 nM; under B20, 48 nM.
B22 showed an equilibrium dissociation constant (Kd) of 72 nM.
The same measure, in the same setting: under B23 stands 18 nM.
Still for that read-out and setting: under B25 stands 65 nM; under B26, 23 nM.
On the same count and under the same terms, under B27 stands 3.7 nM; under B28, 42 nM.
B30 gave a dissociation constant Kd of 14 nM. Against the preceding molecule, the Kd is about 3-fold lower.
Molecule B34 gave a Kd of 21 nM.

A further assay shares this target. Nature of the assay: SPR; pH 7.4. This is another data set of the same source.
Turning to B1, the Kd stood at 32 nM.
On the same count and under the same terms, under B3 stands 41 nM; under B4, 170 nM; under B7, 280 nM.
Still for that read-out and setting: under B11 stands 220 nM.
As to B13, the Kd was found to be 87 nM.
